Source: US20040029178A1, “Novel g protein-coupled receptor proteins and dnas thereof” (priority 2000, published 2004)
Ends that are not written are not given here. * marks the point of attachment. 125I = [125I]*

T1: TGR26, the rat-derived novel G protein-coupled receptor protein (rat, UniProt Q56UD9 1-329)
T1 construct: Expressed in CHO dhfr- cells from pAK-rGPR7; also called rat TGR26; TGR26 receptor
T1 sequence: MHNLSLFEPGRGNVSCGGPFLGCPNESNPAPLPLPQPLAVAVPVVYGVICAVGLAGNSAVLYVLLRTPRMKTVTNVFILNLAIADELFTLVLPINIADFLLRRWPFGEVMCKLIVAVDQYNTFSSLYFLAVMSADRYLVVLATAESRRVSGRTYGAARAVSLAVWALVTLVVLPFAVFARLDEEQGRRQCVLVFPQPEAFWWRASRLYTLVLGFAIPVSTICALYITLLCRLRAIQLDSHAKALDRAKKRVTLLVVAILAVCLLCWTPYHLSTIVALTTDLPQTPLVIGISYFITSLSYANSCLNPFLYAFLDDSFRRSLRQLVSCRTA


Experiments:
[1] = molecular target: T1, TGR26, the rat-derived novel G …; assay: radioligand binding to membrane fraction of TGR26 expressing CHO cells, filtration, gamma counting
Description: (§1) Using [¹²⁵I-Tyr¹⁰]-hGPR8L (1-23) prepared by the method described in Reference Example 15 and a cell membrane fraction prepared from TGR26 expressing cells as described in Example 6, a receptor binding assay was carried out as follows.
(§2) Cell membrane fraction prepared from TGR26 expressing cells was diluted to various concentration with assay buffer (25 mM Tris-HCl, 5 mM EDTA, 0.05% CHAPS (3-[(3-Cholamidopropyl) Dimethyl-Ammonio]-1-Propanesulfonate), 0.1% BSA, 0.5 mM PMSF, 1 μg/ml Pepstatin, 20 μg/ml Leupeptin, 4 μg/ml E-64, pH 7.4), and 200 μl each of the diluent was dispensed into polypropilene test tube (Falcon 2053). In order to determine an amount of maximum binding, 2 μl of DMSO and 2 μl of 7 nM [¹²⁵I-Tyr¹⁰]-hGPR8L (1-23) were added to the membrane fraction solution. Further, in order to determine a non-specific binding, 2 μl of 100 μM hGPR8L (1-23)/DMSO solution and 2 μl of 7 nM [¹²⁵I-Tyr¹⁰]-hGPR8L (1-23) were added to the membrane fraction solution. The reaction was done at 25° C. for 75 minutes, and the reaction mixture was filtered by suction filtration using Whatman glassfilter (GF-F) treated with polyethyleneimine. […] After filtration, a radioactivity remaining on the filter was counted using γ-counter, and an amount of specific binding was estimated by subtracting an amount of non-specific binding from an amount of maximum binding. […]

[2] = molecular target: T1, TGR26, the rat-derived novel G …; assay: competition with [125I-Tyr10]-hGPR8L (1-23) for membrane fraction of TGR26 expressing CHO cells
Description: as §1, §2

binding result [1]	IC50 [2] [nM]	Binder
binds	–	WYKHVASPRY(125I)HTVGRAAGLLMGL-OH [[^125I-Tyr^10]-hGPR8L (1-23)]
–	0.12	WYKHVASPRYHTVGRAAGLLMGL-OH (also called human GPR8 ligand (1-23)) [human homologue of GPR8 ligand peptide consisting of 23 residues, hGPR8L (1-23)]
